From patent publication US20130225434A1 (BOARD OF TRUSTEES OF THE UNIVERSITY OF ILLINOIS, published 2013)
Positions count from the first letter of the chain named. Numbers in names are those of the source. Square brackets hold non-standard residues; d marks the D form. * marks the point of attachment. Biotin = O=C1N[C@H]2[C@H](CS[C@H]2CCCCC(=O)*)N1; pY = N[C@@H](Cc1ccc(OP(=O)(O)O)cc1)C(=O)O; pT = C[C@@H](OP(=O)(O)O)[C@H](N)C(=O)O; pS = N[C@@H](COP(=O)(O)O)C(=O)O

B1: C (designed binder)
FHA1 domain displayed on M13 protein III: MENITQPTQQSTQATQRFLIEKFSQEQIGENIVCRVISTTGQIPIRDLSADISQVLKEKRSIKKVWTFGRNPACDYHLGNISRLSNKHFQILLGEDGNLLLNDISTNGTWLNGQKVEKNSNQLLSQGDEITVGVGVESDILSLVIFINDKFKQSLEQNKVDRIRSNLKNT
notes: also called S34C
B2: D (designed binder)
FHA1 domain displayed on M13 protein III: B1 FHA1 domain displayed on M13 protein III with C34D
notes: also called S34D
B3: E (designed binder)
FHA1 domain displayed on M13 protein III: B1 FHA1 domain displayed on M13 protein III with C34E
notes: also called S34E
B4: G (designed binder)
FHA1 domain displayed on M13 protein III: B1 FHA1 domain displayed on M13 protein III with C34G
notes: also called S34G
B5: H (designed binder)
FHA1 domain displayed on M13 protein III: B1 FHA1 domain displayed on M13 protein III with C34H
notes: also called S34H
B6: K (designed binder)
FHA1 domain displayed on M13 protein III: B1 FHA1 domain displayed on M13 protein III with C34K
notes: also called S34K
B7: N (designed binder)
FHA1 domain displayed on M13 protein III: B1 FHA1 domain displayed on M13 protein III with C34N
notes: also called S34N
B8: P (designed binder)
FHA1 domain displayed on M13 protein III: B1 FHA1 domain displayed on M13 protein III with C34P
notes: also called S34P
B9: Q (designed binder)
FHA1 domain displayed on M13 protein III: B1 FHA1 domain displayed on M13 protein III with C34Q
notes: also called S34Q
B10: R (designed binder)
FHA1 domain displayed on M13 protein III: B1 FHA1 domain displayed on M13 protein III with C34R
notes: also called S34R
B11: T (designed binder)
FHA1 domain displayed on M13 protein III: B1 FHA1 domain displayed on M13 protein III with C34T
notes: also called S34T
B12: A7 variant of the FHA1 domain, phage-displayed (designed binder, not shown: small tags and cut ends)
chain: B1 FHA1 domain displayed on M13 protein III with C34S, N121Y
notes: From the library built on the 3C-3S template
B13: A10 variant of the FHA1 domain, phage-displayed (designed binder, not shown: small tags and cut ends)
chain: B1 FHA1 domain displayed on M13 protein III with Q25H, C34S, N121Y, S142R
notes: as for B12
B14: C12 variant of the FHA1 domain, phage-displayed (designed binder, not shown: small tags and cut ends)
chain: B1 FHA1 domain displayed on M13 protein III with C34S, W66R
notes: as for B12
B15: G9 variant of the FHA1 domain, phage-displayed (designed binder, not shown: large carriers; small tags and cut ends)
chain: B1 FHA1 domain displayed on M13 protein III with Q13R, C34S, I104V, N121Y, R164S
notes: as for B12
B16: 3C-3S variant of the FHA1 domain, GST fusion (other)
chain: B1 FHA1 domain displayed on M13 protein III with C34S
notes: Cell lysate used in the ELISA; not shown: The N-terminal GST of the pGEX-2T vector and the vector junction residues
B17: 4C-4S variant of the FHA1 domain, GST fusion (other)
chain: B1 FHA1 domain displayed on M13 protein III with C34S, C74S
notes: as for B16
B18: D2 variant of the FHA1 domain, GST fusion (designed binder)
chain: B1 FHA1 domain displayed on M13 protein III with C34F
notes: as for B16
B19: Plk1-pT (peptide)
peptide: Biotin-SGSAGPMQS[pT]PLNGAKK-NH2
SMILES: CSCC[C@H](NC(=O)[C@@H]1CCCN1C(=O)CNC(=O)[C@H](C)NC(=O)[C@H](CO)NC(=O)CNC(=O)[C@H](CO)NC(=O)CCCC[C@@H]1SC[C@@H]2NC(=O)N[C@@H]21)C(=O)N[C@@H](CCC(N)=O)C(=O)N[C@@H](CO)C(=O)N[C@H](C(=O)N1CCC[C@H]1C(=O)N[C@@H](CC(C)C)C(=O)N[C@@H](CC(N)=O)C(=O)NCC(=O)N[C@@H](C)C(=O)N[C@@H](CCCCN)C(=O)N[C@@H](CCCCN)C(N)=O)[C@@H](C)OP(=O)(O)O
B20: Rad9-pS (peptide)
peptide: Biotin-SGSSLEV[pS]EADATFYAKK-NH2
SMILES: CC(C)C[C@H](NC(=O)[C@H](CO)NC(=O)[C@H](CO)NC(=O)CNC(=O)[C@H](CO)NC(=O)CCCC[C@@H]1SC[C@@H]2NC(=O)N[C@@H]21)C(=O)N[C@@H](CCC(=O)O)C(=O)N[C@H](C(=O)N[C@@H](COP(=O)(O)O)C(=O)N[C@@H](CCC(=O)O)C(=O)N[C@@H](C)C(=O)N[C@@H](CC(=O)O)C(=O)N[C@@H](C)C(=O)N[C@H](C(=O)N[C@@H](Cc1ccccc1)C(=O)N[C@@H](Cc1ccc(O)cc1)C(=O)N[C@@H](C)C(=O)N[C@@H](CCCCN)C(=O)N[C@@H](CCCCN)C(N)=O)[C@@H](C)O)C(C)C
B21: Rad9-pY (peptide)
peptide: Biotin-SGSSLEV[pY]EADATFYAKK-NH2
SMILES: CC(C)C[C@H](NC(=O)[C@H](CO)NC(=O)[C@H](CO)NC(=O)CNC(=O)[C@H](CO)NC(=O)CCCC[C@@H]1SC[C@@H]2NC(=O)N[C@@H]21)C(=O)N[C@@H](CCC(=O)O)C(=O)N[C@H](C(=O)N[C@@H](Cc1ccc(OP(=O)(O)O)cc1)C(=O)N[C@@H](CCC(=O)O)C(=O)N[C@@H](C)C(=O)N[C@@H](CC(=O)O)C(=O)N[C@@H](C)C(=O)N[C@H](C(=O)N[C@@H](Cc1ccccc1)C(=O)N[C@@H](Cc1ccc(O)cc1)C(=O)N[C@@H](C)C(=O)N[C@@H](CCCCN)C(=O)N[C@@H](CCCCN)C(N)=O)[C@@H](C)O)C(C)C

Target: T1, Rad9-pT peptide with SGS linker (SGS-SLEVpTEADATFYAKK) (yeast, SMILES …)
T1 construct: also called cognate pT peptide; Rad-pT
T1 peptide: Biotin-SGSSLEV[pT]EADATFYAKK-NH2
Experiment: phage ELISA on immobilized Rad9-pT, phage normalised to the Flag epitope; anti-M13-HRP, A405
Excerpt: Through Kunkel mutagenesis (Yaffe (2002) Nat Rev Mol Cell Bol 3, 177-86), the amino acid residue at position 34 in the β1 strand of the D2 FHA 1 domain was replaced (from the naturally-occurring V) one at a time with each of the other naturally occurring amino acids and binding to the immobilized Rad9-pT peptide was monitored by phage ELISA. Phage binding was detected using anti-M13 antibody conjugated to Horse Radish Peroxidase (HRP). […] All the variants display an N-terminal Flag peptide and the amount of phage particles used for each variant in this experiment has been normalized for this epitope.
To amplify the phage particles displaying the recombinant FHA1 variants, TG1 bacterial cells (5 mL; Stratagene) harboring the phagemid DNA were infected at mid-log (OD₆₀₀ₙₘ=0.5-0.6) with M13K07 helper phage (New England Biolabs) at a multiplicity of infection (MOI) of 20 for 1 h at 37° C. at 150 rpm. Infected cells were centrifuged, and the pellet was resuspended in fresh Luria Bertani medium (LB: 10 g Tryptone, 5 g Yeast extract, and 10 g NaCl per liter) supplemented with 50 μg/mL carbenicillin and 50 μg/ml kanamycin, and phage were amplified overnight at 30° C. at 250 rpm. All of the phage ELISA steps were performed at room temperature. Biotinylated peptides (100 μL, 5 μg/mL) were immobilized on Nunc MaxiSorp flat-bottom 96 well plates (Thermo Fisher Scientific) via NeutrAvidin™ Biotin binding protein (100 μL, 10 μg/mL; Thermo Fisher Scientific) and blocked with 2% skim milk in 1×PBS (200 μL per well).

Does B1 bind?
Result: no binding

Does B2 bind?
Result: no binding

Does B3 bind?
Result: no binding

Does B4 bind?
Result: no binding

Does B5 bind?
Result: no binding

Does B6 bind?
Result: no binding

Does B7 bind?
Result: no binding

Does B8 bind?
Result: no binding

Does B9 bind?
Result: no binding

Does B10 bind?
Result: no binding

Does B11 bind?
Result: no binding

Target: T2, BRCT-pS (SMILES …)
T2 construct: also called Biotin-BRCT-pS
T2 peptide: Biotin-SGSAYDI[pS]QVFPFAKKK-NH2
Experiment: phage ELISA; biotinylated peptide on Neutravidin, A405
Description: FIG. 9A is a photograph of 96-well plates containing phage supernatants from 96 individual clones, which were isolated after three rounds of selection, heated (50° C.), cooled, and added to microtiter plate wells coated with the phosphopeptide ligand. Binding of phage particles in the wells was monitored with an anti-M13 antibody conjugated to HRP. FIG. 9B is a graph showing the ratio of the ELISA signals for individual phage clones generated with wells contained with the target protein compared to a negative control protein (background).
Phage particles produced from 96 clones isolated after round #3, were heated at 50° C. for 3 hr and cooled to RT. The phage supernatants were then incubated with both the target peptide (500 ng/well) immobilized on NeutrAvidin (1 μg/well) coated plate wells and an unrelated target (background). Binding phage clones were detected using anti-M13 antibody conjugated to HRP (GE Healthcare). The green, colored product of the enzymatic reaction in the microtiter plate wells was measured at 405 nm using the FLUOstar OPTIMA plate reader (BMG Labtech). […] In some cases, the signal over background ratio ranged from 3 to 20 for clones (FIG. 9B).

Does B12 bind?
Result: no binding

Does B13 bind?
Result: no binding

Does B14 bind?
Result: no binding

Does B15 bind?
Result: no binding

Target: T2, BRCT-pS
Experiment: ELISA with GST fusion (cell lysate); biotinylated peptide on Neutravidin; anti-GST-HRP, A405 [b]

Does B16 bind?
Result: no binding

Does B17 bind?
Result: no binding

Does B18 bind?
Result: no binding

target: T3, WT FHA1 domain of S. cerevisiae Rad53, phage-displayed (protein III fusion on bacteriophage M13) (Saccharomyces cerevisiae; bacteriophage …, UniProt P22216 1-170); experiment: phage ELISA; biotinylated peptide on Neutravidin; anti-M13-HRP, A405 [a]
T3 construct: not shown: minor coat protein III (pIII, gene III product) of bacteriophage M13
T3 sequence: B1 FHA1 domain displayed on M13 protein III with S38C, S154C
Excerpt: Binding of phage particles was detected using anti-M13 antibody conjugated to HRP. FIG. 4(b) is a graph of the results of ELISA experiments of GST fusions of the WT FHA1 domain and three of its variants, 3C-3S, 4C-4S, and D2, that bound specifically to the cognate pT peptide (Rad9-pT; shown as solid histograms) immobilized on plastic microtiter plate wells via Neutravidin. Binding was detected using anti-GST antibody conjugated to HRP. The peptide sequences for Rad9-pT, Rad9-T, Rad9-pS, Rad9-pY, Plk1-pT and BRCT-pS are SGSSLEVp[…] (SEQ ID NO: 1), […] (SEQ ID NO: 2), SGSSLEVp[…] (SEQ ID NO: 3), SGSSLEVp[…] (SEQ ID NO: 4), […]p[…] (SEQ ID NO: 5) and SGSAYDIp[…] (SEQ ID NO: 6), respectively. The peptide sequence for the WT FHA1 domain from S. cerevisiae Rad53 protein kinase includes […] (SEQ ID NO:7), which includes residues 1-170 of S. cerevisiae Rad53 (SEQ ID NO:8) (Liao et al. (2000) J. Mol. Biol 304, 941-51; Durocher et al. (1999) Mol Cell 4). […] The β-strands are labeled from 1 to 11 in the WT FHA1 domain structure and the N- and C-termini are noted.

Does B19 bind?
Result: no binding

Does B20 bind?
Result: no binding

Does B21 bind?
Result: no binding
